Data from US20140120555A1 (PIERRE FABRE MEDICAMENT, published 2014).

Target: T1, Recombinant human FcγRI [CD64], Gln16-Pro288 with C-terminal 6-His tag (human, UniProt P12314 16-288)
T1 construct: range 16-288; Soluble form bought from R&D Systems; also called h-FcγRI
Assay: SPR (Biacore X): h-FcγRI injected over c515H7 Mab immobilized on a CM4 sensorchip; Langmuir model
Description: 2017 RU of c515H7 Mab were immobilized using the amine coupling kit chemistry on the second flowcell (FC2) of a CM4 sensorchip. The first flowcell (FC1) activated by NHS and EDC mixture and des-activated by ethanolamine served as the reference surface to check and subtract the non specific interaction between the analyte (Fc gamma receptors) and the sensorchip matrix.
The kinetic experiments were carried out at 25° Celsius at a flow rate of 30 μl/min. The HBS-EP buffer was used either as the running buffer or for the preparation of analyte solutions. The analyte solutions were injected during 90 seconds (association phase) with a 90 seconds delay (dissociation phase). An injection of running buffer as analyte was used as a double reference. All the sensorgrams were corrected by this double reference sensorgram.
After each injection of the analyte, the sensorchip was regenerated by injection of 20 mM NaOH, 75 mM NaCl solution.

T1 sequence (P12314 other isoform, or with tags, fused parts or gaps limits assumed): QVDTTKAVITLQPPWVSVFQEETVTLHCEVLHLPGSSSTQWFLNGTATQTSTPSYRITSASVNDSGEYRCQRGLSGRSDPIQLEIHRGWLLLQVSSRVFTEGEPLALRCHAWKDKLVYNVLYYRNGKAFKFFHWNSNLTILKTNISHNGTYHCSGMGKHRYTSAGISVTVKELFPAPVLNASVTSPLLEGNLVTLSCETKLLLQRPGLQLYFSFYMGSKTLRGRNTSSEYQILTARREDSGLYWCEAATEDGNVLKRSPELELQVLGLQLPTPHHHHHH

Kd: 1.22 nM
koff: 0.000599 s⁻¹
kon: 493000 M⁻¹ s⁻¹
B1: chimeric antibody c515H7 (antibody, human IgG1, kappa)
heavy: not shown
light: DIVMSQSPSSLAVSAGEKVTMSCKSSQSLFNSRTRKNYLAWYQQKPGQSPKLLIYWASARDSGVPARFTGSGSETYFTLTISRVQAEDLAVYYCMQSFNLRTFGGGTKLEIKRTVAAPSVFIFPPSDEQLKSGTASVVCLLNNFYPREAKVQWKVDNALQSGNSQESVTEQDSKDSTYSLSSTLTLSKADYEKHKVYACEVTHQGLSSPVTKSFNRGEC
notes: Human IgG1/kappa constant domains; also called c515H7 Mab; chimeric 515H7
